Measured values: article PMC2693874 (2009)
Where two headings read alike, the source gives them in different places.

Legend:
[1] = target: OG488-EGR-labeled fXa-R165A; assay: fluorescence polarisation
[2] = target: OG488-EGR-labeled fXa-R165A; assay: fluorescence polarisation; remark: listed apart in the source
OG488-EGR-labeled E2-fXa = assay: fluorescence polarisation
[3] = target: OG488-EGR-labeled fXa-des-Gla; assay: fluorescence polarisation
[4] = target: OG488-EGR-labeled wild-type factor Xa; assay: fluorescence polarisation
factor Va = target: T1, factor Va (Homo sapiens, UniProt P12259); assay: prothrombinase assay
T1 chain 1: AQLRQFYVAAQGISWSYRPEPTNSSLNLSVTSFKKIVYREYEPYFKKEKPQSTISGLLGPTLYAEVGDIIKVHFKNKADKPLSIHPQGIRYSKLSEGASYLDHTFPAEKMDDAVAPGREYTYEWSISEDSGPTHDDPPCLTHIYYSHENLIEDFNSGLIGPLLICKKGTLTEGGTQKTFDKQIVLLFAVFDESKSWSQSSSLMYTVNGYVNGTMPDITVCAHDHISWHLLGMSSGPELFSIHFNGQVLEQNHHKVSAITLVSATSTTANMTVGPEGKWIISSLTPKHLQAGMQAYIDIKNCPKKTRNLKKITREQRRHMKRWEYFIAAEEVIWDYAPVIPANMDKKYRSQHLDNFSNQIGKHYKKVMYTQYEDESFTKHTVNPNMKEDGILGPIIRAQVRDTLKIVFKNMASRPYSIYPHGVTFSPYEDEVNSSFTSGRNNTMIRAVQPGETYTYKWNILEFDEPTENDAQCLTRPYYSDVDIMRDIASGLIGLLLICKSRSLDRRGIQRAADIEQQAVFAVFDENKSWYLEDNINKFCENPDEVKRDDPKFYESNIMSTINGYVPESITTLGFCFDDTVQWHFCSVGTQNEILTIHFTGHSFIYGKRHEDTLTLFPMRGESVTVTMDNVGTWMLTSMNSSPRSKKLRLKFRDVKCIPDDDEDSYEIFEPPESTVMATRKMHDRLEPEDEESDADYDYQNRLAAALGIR
T1 chain 2: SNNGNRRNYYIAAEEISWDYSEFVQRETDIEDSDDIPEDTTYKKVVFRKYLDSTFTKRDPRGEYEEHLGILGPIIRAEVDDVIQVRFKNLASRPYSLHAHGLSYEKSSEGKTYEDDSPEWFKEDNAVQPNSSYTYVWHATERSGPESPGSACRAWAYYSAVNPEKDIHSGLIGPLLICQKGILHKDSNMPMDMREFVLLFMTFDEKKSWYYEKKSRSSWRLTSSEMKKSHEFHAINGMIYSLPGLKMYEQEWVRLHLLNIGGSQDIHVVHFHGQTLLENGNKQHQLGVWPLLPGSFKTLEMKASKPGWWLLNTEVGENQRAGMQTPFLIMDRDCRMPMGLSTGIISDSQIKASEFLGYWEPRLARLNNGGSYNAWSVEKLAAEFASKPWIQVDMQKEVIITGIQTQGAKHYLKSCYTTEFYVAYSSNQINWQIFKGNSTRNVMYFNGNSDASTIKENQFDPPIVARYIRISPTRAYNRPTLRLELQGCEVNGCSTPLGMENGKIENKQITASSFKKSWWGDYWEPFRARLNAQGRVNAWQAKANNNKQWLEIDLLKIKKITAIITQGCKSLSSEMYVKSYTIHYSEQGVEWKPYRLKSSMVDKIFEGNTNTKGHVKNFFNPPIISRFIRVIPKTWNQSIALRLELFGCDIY

human plasma factor Va (from UniProt P12259 29-737; P12259 1574-2224) (natural protein)
Kd [1]: 10.5 nM
Kd [2]: 10.3 nM
Kd (OG488-EGR-labeled E2-fXa): 62 nM
Kd [3]: 58 nM
Kd [4]: 1.5 nM

B1: factor Xa (protein)
chain: IVGGQECKDGECPWQALLINEENEGFCGGTILSEFYILTAAHCLYQAKRFKVRVGDRNTEQEEGGEAVHEVEVVIKHNRFTKETYDFDIAVLRLKTPITFRMNVAPACLPERDWAESTLMTQKTGIVSGFGRTHEKGRQSTRLKMLEVPYVDRNSCKLSSSFIITQNMFCAGYDTKQEDACQGDSGGPHVTRFKDTYFVTGIVSWGEGCARKGKYGIYTKVTAFLKWIDRSMKTRGLPKAKSHAPEVITSSPLK
modifications: PCPS vesicles
Kd (factor Va): 0.5 nM
